Tested on: DU-145 tumor xenografts
Test: UTMD delivery of Alexa Fluor-His-MDA-7/MB complex to DU-145 xenografts
Assay type: in vivo, mice
Conditions: tail vein, ultrasound at left flank tumor (UTMD)
Experimental: DU-145 human prostate cancer cells were established as xenografts in the left flank of nude mice. Alexa Fluor labeled His-MDA-7/MBs complex were injected through the tail vein of nude mice, and sonoporated in the xenograft (DU-145) tumor implanted in the left flank with a portable ultrasound (SonoSite Micro-Maxx US platform) equipped with an L25 linear array transducer set at 0.7 Mechanical Index, 1.8 MPa for 10 min (UTMD approach). The fluorescent image was captured using Xenogen IVIS spectrum. […] Lighter color indicates higher fluorescent intensity.
In addition to delivering therapeutic viruses systemically, we also tested the possibility of using MBs and a UTMD approach to deliver therapeutic proteins in vivo. His tagged MDA-7/IL-24 (His-MDA-7) was purified by using Ni-NTA column chromatography. 1 mg/ml of His-MDA-7 solution was mixed with Alexa Fluor 488 containing 0.1 M Sodium bicarbonate, followed by removal of unincorporated dye by centrifugation using centricon (3 kD cut off MW). Confirmation of labeling of His-MDA-7 (Alexa Fluor-His-MDA-7) was obtained spectroflurometrically based on emission spectra changes. The Alexa Fluor-His-MDA-7 was incubated overnight with MBs and localization of the labeled protein complex in the MBs was monitored by green fluorescence and found to be associated with the lipid shell of the MB (FIG. 3A). […]

B1: Alexa Fluor-His-MDA-7: His tagged MDA-7/IL-24 protein labeled with Alexa Fluor 488, complexed with microbubbles (protein, UniProt Q13007 52-206, looked up)
Interleukin-24: QEFHFGPCQVKGVVPQKLWEAFWAVKDTMQAQDNITSARLLQQEVLQNVSDAESCYLVHTLLEFYLKTVFKNYHNRTVEVRTLKSFSTLANNFVLIVSQLQPSQENEMFSIRDSAHRRFLLFRRAFKQLDVEAALTKALGEVDILLTWMQKFYKL
modifications: His tag, Alexa Fluor 488, microbubble complex
notes: His tagged MDA-7/IL-24 protein labeled with Alexa Fluor 488, complexed with microbubbles
  localisation of labeled protein (fluorescent image): mostly localized in the left flank where ultrasound was applied
Listed as Alexa Fluor-MDA-7
  localisation of labeled protein (fluorescent image): located predominantly in the tumor in the left flank of mice

Reference: US20220218850A1, “Methods and Compositions for Two-Stage Microbubble Delivery of Active Agents” (Virginia Commonwealth University, priority 2021, published 2022)
